Target: SARS-CoV-2 S HexaPro (Spike 6P) ectodomain trimer (SARS-CoV-2 | not stated) (UniProt P0DTC2)
Assay: cryo-EM structure

“SARS-CoV-2 S HexaPro (Spike 6P) ectodomain trimer (from UniProt P0DTC2 14-1208) (domain or fragment)” showed a stoichiometry N of 3 protomers.

Source: publication PMC12053377
